The text below walks through data of publication PMC3988464.

Where two headings read alike, the source gives them in different places.

One assay deals with CXCR2 (Homo sapiens) (UniProt P25025). Conditions: cited from earlier work.
Assay [1] deals with Wild type CXCL8 (human).
Assay [2] deals with Wild type CXCL8 (human). Description: SPR.
In assay [3] the target is Wild type CXCL8 (human). Description: SPR. This is another data set of the same source. On the technique in general: Surface plasmon resonance follows binding to a sensor surface in real time, without labels.
Another assay has as its target CXCL8 (Homo sapiens) (UniProt P10145). Conditions: cited from earlier work.
Assay [4] deals with Isolated Link module of human TSG-6 (Link_TSG6) (human) (UniProt P98066). Description: SPR.
Assay [5] has the same target. Description: SPR. The source holds these as a separate data set.

Chain of Isolated Link module of human TSG-6 (Link_TSG6) (human) (P98066 36-129): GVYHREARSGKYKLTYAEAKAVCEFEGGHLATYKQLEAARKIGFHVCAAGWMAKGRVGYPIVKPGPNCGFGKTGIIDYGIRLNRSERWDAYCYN
Chain of Full-length, wild type recombinant human TSG-6 (P98066 18-277): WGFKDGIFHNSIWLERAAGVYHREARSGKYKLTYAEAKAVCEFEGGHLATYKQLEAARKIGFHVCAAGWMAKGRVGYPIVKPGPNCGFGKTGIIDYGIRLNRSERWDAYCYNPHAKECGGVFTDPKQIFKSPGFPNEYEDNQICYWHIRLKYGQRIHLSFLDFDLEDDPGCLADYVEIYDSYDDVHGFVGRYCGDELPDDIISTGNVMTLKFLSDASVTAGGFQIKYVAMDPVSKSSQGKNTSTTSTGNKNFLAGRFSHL
Chain of Isolated Link module of human TSG-6 (Link_TSG6) (P98066 36-129): as the sequence (P98066 36-129) above
Chain of CXCL8 (Homo sapiens) (P10145 28-99): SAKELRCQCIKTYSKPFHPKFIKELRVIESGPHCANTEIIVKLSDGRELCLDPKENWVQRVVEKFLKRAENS
Chain of CXCL8 (P10145 28-99): as above
Chain of CXCR2 (Homo sapiens) (P25025 whole entry): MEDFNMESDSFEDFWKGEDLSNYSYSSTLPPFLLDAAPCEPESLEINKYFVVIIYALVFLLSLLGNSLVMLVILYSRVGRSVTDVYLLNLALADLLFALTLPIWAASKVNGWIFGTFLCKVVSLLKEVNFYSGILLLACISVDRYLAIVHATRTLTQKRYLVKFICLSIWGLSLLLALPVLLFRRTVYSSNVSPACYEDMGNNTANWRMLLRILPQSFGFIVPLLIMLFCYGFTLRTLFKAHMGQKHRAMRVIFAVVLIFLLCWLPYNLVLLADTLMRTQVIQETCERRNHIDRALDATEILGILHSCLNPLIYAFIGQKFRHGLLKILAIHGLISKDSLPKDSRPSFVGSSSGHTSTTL
Chain of Evasin-3 (P0C8E8 21-86): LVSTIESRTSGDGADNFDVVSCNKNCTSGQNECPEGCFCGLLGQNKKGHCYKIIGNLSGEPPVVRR

Take CXCL8 (from UniProt P10145): the Kd in the assay with CXCR2 (Homo sapiens) is 1 nM.

For “Isolated Link module of human TSG-6 (Link_TSG6) (from UniProt P98066 36-129) (domain or fragment)”, the inhibition of CXCL8-induced neutrophil trans-migration (Transwell) in the assay with Wild type CXCL8 (human) [1] was 10 nM.

With “Full-length, wild type recombinant human TSG-6 (from UniProt P98066 18-277) (natural protein)”, the Kd in the assay with Wild type CXCL8 (human) [2] was determined as 74 nM; with Wild type CXCL8 (human) [3], 20 nM.

With Evasin-3 (from UniProt P0C8E8), in the assay with CXCL8 (Homo sapiens), the Kd is 1 nM.

In assay [4], Wild type CXCL8 (ligand) returned a dissociation constant (Kd) of 21 nM and a koff of 0.0011 s⁻¹. In assay [5], the Kd is 6 nM and the koff was found to be 0.00032 s⁻¹.

What is called Kd is the constant that tells how readily two partners part at equilibrium. What is called koff is the first-order rate constant of dissociation.
